From US20220056104A1 (Janssen / Centocor, published 2022) come the findings set out here.

Positions count from the first letter of the chain named. Names may count otherwise.

The chains are these.
T1: DcR3 (UniProt O95407 30-300, limits assumed)
T1 construct: the construct is not described; also called decoy receptor DcR3; TNFRSF6B
T1 sequence (looked up): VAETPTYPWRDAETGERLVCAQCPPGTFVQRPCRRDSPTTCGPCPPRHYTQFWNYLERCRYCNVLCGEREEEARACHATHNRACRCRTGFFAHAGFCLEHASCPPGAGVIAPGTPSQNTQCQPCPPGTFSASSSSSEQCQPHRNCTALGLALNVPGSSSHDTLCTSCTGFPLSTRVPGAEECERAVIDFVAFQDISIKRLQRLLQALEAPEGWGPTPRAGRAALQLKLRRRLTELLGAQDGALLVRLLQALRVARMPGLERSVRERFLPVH

B1: TL1W27 (His-TEV-hTL1A 72-251 T239E) (ligand)
chain: HHHHHHENLYFQGLKGQEFAPSHQQVYAPLRADGDKPRAHLTVVRQTPTQHFKNQFPALHWEHELGLAFTKNRMNYTNKFLLIPESGDYFIYSQVTFRGMTSECSEIRQAGRPNKPDSITVVITKVTDSYPEPTQLLMGTKSVCEVGSNWFQPIYLGAMFSLQEGDKLMVNVSDISLVDYEKEDKTFFGAFLL
notes: also called TL1W27 (T239E)
B2: TL1W101 (His-TEV-TL1A S176N) (ligand)
chain: B1 chain with S118N, E181T
notes: also called TL1W101 (S176N)
B3: TL1W138 (His-TEV-TL1A K240D) (ligand)
chain: B1 chain with E181T, K182D
notes: also called TL1W138 (K240D)
B4: TL1W88 (His-TEV-TL1A R156A) (ligand)
chain: B1 chain with R98A, E181T
notes: also called TL1W88 (R156A)
B5: TL1W130 (His-TEV-TL1A Y238R) (ligand)
chain: B1 chain with Y180R, E181T
notes: also called TL1W130 (Y238R)
B6: TL1W139 (His-TEV-TL1A E241Q) (ligand)
chain: B1 chain with E181T, E183Q
notes: also called TL1W139 (E241Q)
B7: TL1W83 (His-TEV-TL1A E120K) (ligand)
chain: B1 chain with E62K, E181T
notes: also called TL1W83 (E120K)
B8: TL1W128 (His-TEV-TL1A Y238S) (ligand)
chain: B1 chain with Y180S, E181T
notes: also called TL1W128 (Y238S)
B9: TL1W135 (His-TEV-TL1A K240A) (ligand)
chain: B1 chain with E181T, K182A
notes: also called TL1W135 (K240A)
B10: TL1W86 (His-TEV-TL1A G124K) (ligand)
chain: B1 chain with G66K, E181T
notes: also called TL1W86 (G124K)
B11: TL1W91 (His-TEV-TL1A R156E) (ligand)
chain: B1 chain with R98E, E181T
notes: also called TL1W91 (R156E)
B12: TL1W33 (E241L) (ligand)
chain: B1 chain with E181T, E183L
notes: no entry of the listing holds E241L; also called E241L variant of His-TL1A
B13: TL1W133 (His-TEV-TL1A T239F) (ligand)
chain: B1 chain with E181F
notes: also called TL1W133 (T239F)
B14: TL1W89 (His-TEV-TL1A R156Y) (ligand)
chain: B1 chain with R98Y, E181T
notes: also called TL1W89 (R156Y)
B15: TL1W134 (His-TEV-TL1A T239K) (ligand)
chain: B1 chain with E181K
notes: also called TL1W134 (T239K)

The target in this assay is T1, DcR3. Nature of the assay: ELISA, DcR3. Background: ELISA stands for enzyme-linked immunosorbent assay.
In general, EC50 refers to the concentration giving half of the maximal effect. The low end stands for higher potency in that assay, the high end for lower potency in that assay. Consider B1, for which the EC50 stood at 34.3 nM and the “Rel EC50” value is 7.5 ratio (head: nM).

For the molecule B2, the EC50 was found to be 20.4 nM and the “Rel EC50” value is 4.4 ratio (head: nM).

Regarding B3, the EC50 stood at 59.5 nM and the “Rel EC50” value was 12.9 ratio (head: nM).

For the molecule B4, the response was half-maximal at 13.5 nM (EC50) and the “Rel EC50” value was 2.9 ratio (head: nM).

In the case of B5, the EC50 is 16.9 nM and the “Rel EC50” value was 3.7 ratio (head: nM).

Take B6: the EC50 was found to be 17.3 nM and the “Rel EC50” value is 3.8 ratio (head: nM).

B7: it took 2.2 nM to reach a half-maximal effect (EC50) and the “Rel EC50” value is 0.5 ratio (head: nM).

In the case of B8, a half-maximal effect (EC50) was put at 10.5 nM and the “Rel EC50” value was 2.3 ratio (head: nM).

Turning to B9, the midpoint of the response, the EC50, lay at 8.5 nM and the “Rel EC50” value is 1.9 ratio (head: nM).

Take B10: the EC50 is 2.9 nM and the “Rel EC50” value is 0.6 ratio (head: nM).

For B11, the EC50 amounted to 8.3 nM and the “Rel EC50” value is 1.8 ratio (head: nM).

For B12, the EC50 turned out to be 5.7 nM and the “Rel EC50” value is 1.2 ratio (head: nM).

B13: the EC50 was determined as 10.8 nM and the “Rel EC50” value was 2.3 ratio (head: nM).

As for B14, the midpoint of the response, the EC50, lay at 8 nM and the “Rel EC50” value was 1.7 ratio (head: nM).

For the molecule B15, a half-maximal effect (EC50) was put at 21.5 nM and the “Rel EC50” value is 4.7 ratio (head: nM).
